Reference: US20140093514A1 (UNIVERSITY OF ZURICH, published 2014)

Legend:
[1] = molecular target: T1, recombinant MAGEA3 protein (human, UniProt P43357 1-314); experiment: ELISA, recombinant MAGEA3 coated to plastic, serial dilutions of antibody, OD 450 nm
T1 construct: In Experiment 4C MAGEA3 was also expressed in transiently transfected HEK293T cells (fixed and permeabilized); also called His-tagged MAGEA3; CT1.3
Experimental: FIG. 4 EC50 determination of recombinant human monoclonal antibodies to MAGEA3. MAGEA3-ELISA was carried out using recombinant MAGEA3 coated to plastic and serial dilutions of the human monoclonal antibodies 21B4, 54B4, 94G11, 9A5, 31H10, 43B10, 2G4, 20C10, 26C9 and 4D6 (A-J). EC50 values are indicated in each figure.
The EC₅₀, the concentration at which half-maximal binding of the antibody to its antigen is observed was determined in MAGEA3 ELISA using serial dilutions of the human monoclonal antibodies 21B4, 54B4, 94G11, 9A5, 31H10, 43B10, 2G4, 20C10, 26C9 and 4D6. EC50 values were determined mathematically by derivation of the best-fit line using GraphPad software.

[2] = molecular target: T2, recombinant MAGEA1 (UniProt P43355 1-309, limits assumed); experiment: ELISA on coated recombinant MAGEA proteins, serial dilutions of antibody (concentrations not printed on the sheet)
T2 construct: also called CT1.1
T2 sequence (looked up): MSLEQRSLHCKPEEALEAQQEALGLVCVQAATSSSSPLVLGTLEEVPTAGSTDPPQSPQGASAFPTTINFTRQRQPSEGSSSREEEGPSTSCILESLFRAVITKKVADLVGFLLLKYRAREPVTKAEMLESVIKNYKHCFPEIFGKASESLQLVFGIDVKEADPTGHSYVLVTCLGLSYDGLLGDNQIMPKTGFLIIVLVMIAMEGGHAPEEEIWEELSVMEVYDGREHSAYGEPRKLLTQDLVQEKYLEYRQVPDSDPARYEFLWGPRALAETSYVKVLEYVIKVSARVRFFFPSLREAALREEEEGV
Experimental: (§1) Recombinantly expressed MAGEA3, MAGEA1, MAGEA4, MAGEA10 were coated on ELISA plates and binding of MAGEA3 antibodies 21B4, 94G11, 2G4, 9A5 and 54B4 to these proteins was tested. The results are depicted in FIG. 3B).

[3] = molecular target: T3, recombinant MAGEA4 (UniProt P43358 1-317, limits assumed); experiment: as above
T3 construct: also called CT1.4
T3 sequence (looked up): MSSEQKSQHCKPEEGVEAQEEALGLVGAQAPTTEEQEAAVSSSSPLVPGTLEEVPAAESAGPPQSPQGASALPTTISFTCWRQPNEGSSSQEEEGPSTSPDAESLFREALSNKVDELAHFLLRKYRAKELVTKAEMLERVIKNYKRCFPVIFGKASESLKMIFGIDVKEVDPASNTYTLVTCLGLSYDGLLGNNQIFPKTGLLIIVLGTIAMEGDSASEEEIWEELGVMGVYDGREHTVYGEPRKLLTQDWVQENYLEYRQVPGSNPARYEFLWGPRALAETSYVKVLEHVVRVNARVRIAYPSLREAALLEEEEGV
Experimental: as §1

[4] = molecular target: T4, recombinant MAGEA10 (UniProt P43363 1-369, limits assumed); experiment: as above
T4 construct: also called CT1.10
T4 sequence (P43363 whole entry): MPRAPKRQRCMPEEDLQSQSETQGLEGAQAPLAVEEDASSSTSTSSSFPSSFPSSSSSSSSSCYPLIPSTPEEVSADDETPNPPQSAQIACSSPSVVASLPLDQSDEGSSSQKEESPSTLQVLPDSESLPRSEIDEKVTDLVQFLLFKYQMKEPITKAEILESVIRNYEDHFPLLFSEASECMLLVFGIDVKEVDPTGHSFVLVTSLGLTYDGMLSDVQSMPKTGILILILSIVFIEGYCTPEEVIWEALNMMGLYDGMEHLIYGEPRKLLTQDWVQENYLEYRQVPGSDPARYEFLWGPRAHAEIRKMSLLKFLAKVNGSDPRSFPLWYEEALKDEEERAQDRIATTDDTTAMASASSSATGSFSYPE
Experimental: as §1

[5] = molecular target: T5, MAGEA3 peptide No 7; experiment: ELISA on plates coated with overlapping 20mer MAGEA3 peptides; antibody at 1 µg/ml; HRP goat anti-human IgG Fc-gamma
T5 construct: member of the group m18; also called 20mer peptide, amino acids 61-80 of MAGEA3
T5 peptide: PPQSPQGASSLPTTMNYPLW
Experimental: (§2) 20mer peptides spanning the entire MAGEA3 protein with 10 aa overlaps shared by each adjacent peptide (Peptides&Elephants, Nuthetal, Germany) were used to coat Maxisorp ELISA plates (Nunc, Rochester, N.Y.). As control a 20mer peptide representing amino acids 40-21 from the NY-ESO-1 protein was used (rev). The numbering of amino acids of MAGEA3 is based on SEQ ID No.: 101.
(§3) Human recombinant antibody was used at a concentration of 1 μg/ml with the exception of antibody 9A5 which was used at […]. Bound human antibody was detected using horseradish peroxidase-conjugated goat anti-human IgG Fc-gamma specific antibodies (Jackson ImmunoResearch, Europe Ltd., Cambridgeshire, UK).

[6] = molecular target: T6, MAGEA3 peptide No 8; experiment: as above
T6 construct: member of the group m18; also called 20mer peptide, amino acids 71-90 of MAGEA3
T6 peptide: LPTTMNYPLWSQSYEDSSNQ
Experimental: as §2, §3

[7] = molecular target: T7, MAGEA3 peptide No 24; experiment: as above
T7 construct: member of the group m18; also called 20mer peptide, amino acids 231-250 of MAGEA3
T7 peptide: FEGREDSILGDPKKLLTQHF
Experimental: as §2, §3

[8] = molecular target: T8, MAGEA6 (UniProt P43360 1-314, limits assumed); experiment: flow cytometry on fixed, permeabilized HEK293T cells transiently transfected with MAGEA6; PE-labeled anti-human antibody
T8 construct: whole, on cells; Intracellular antigen: the transfected cells were fixed and permeabilized before staining; also called CT1.6
T8 sequence (P43360 whole entry): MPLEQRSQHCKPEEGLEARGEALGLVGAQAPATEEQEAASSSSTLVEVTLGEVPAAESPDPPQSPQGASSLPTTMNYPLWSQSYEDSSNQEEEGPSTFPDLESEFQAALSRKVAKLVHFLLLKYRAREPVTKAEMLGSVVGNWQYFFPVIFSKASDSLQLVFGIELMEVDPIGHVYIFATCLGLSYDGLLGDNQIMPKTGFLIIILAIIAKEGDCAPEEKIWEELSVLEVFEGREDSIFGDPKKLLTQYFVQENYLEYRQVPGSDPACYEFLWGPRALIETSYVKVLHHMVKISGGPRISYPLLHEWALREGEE
Experimental: HEK293T cells transiently transfected with MAGEA3 or MAGE A6 were fixed and permeabilized and incubated with human-derived antibodies. Binding of human-derived antibodies to the cells was detected by flow cytometry using PE-labeled anti-human antibodies. […] Filled histograms show binding of 21B4, 31H10, 94G11 and 54B4 to transiently transfected HEK 293 cells. Only a proportion of the cells was transfected resulting in a population expressing the transgene and in a population not expressing the transgene. […] The results are depicted in FIG. 3C).

T1 sequence (P43357 whole entry): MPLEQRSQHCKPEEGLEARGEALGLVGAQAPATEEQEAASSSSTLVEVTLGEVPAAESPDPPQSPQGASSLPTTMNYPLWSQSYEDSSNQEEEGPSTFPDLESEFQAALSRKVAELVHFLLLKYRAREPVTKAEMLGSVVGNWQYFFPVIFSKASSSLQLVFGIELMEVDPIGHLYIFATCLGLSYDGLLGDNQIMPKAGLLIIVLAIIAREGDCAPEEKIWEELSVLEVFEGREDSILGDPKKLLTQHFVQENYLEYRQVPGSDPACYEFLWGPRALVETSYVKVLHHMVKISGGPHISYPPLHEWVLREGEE

EC50 [1]: 0.0313 nM
binding result [2]: no binding
binding result [3]: no binding
binding result [4]: no binding
binding result [5]: binds
binding result [6]: binds
binding result [7]: binds
binding result [8]: binds
B1: 21B4 (antibody, V domains shown)
VH: QVQLVESGGGVVQPGRSLRLSCTASGFRFRSHGMHWVRQAPGKGLEWVAVISYDGNNKLYADSVKGRITISRDNSKNTLFLQMNNVRAEDTAVYYCASPYTSDWQYFQYWGQGTLVIVSS
VL: EIVMTQSPATLSVSPGERATFSCRASQNISTTLAWYQQKPGQAPRLLIYDTSTRATGIPARFSGSGSGTEFTLTISSLQSEDLAVYYCQQSNSWPLTFGGGTKVEIK
notes: Patient-derived; also called human-derived recombinant antibody 21B4; human monoclonal antibody 21B4
